# T1: Synaptotagmin Like 1 (SYTL1), on the HuProt v3.1 human proteome array (human, UniProt Q8IYJ3 1-562)
# T1 construct: Synaptotagmin Like 1 (SYTL1), human; as arrayed on HuProt v3.1; source: spotted on the HuProt v3.1 human proteome array (CDI NextGen Proteomics)
# T1 sequence (looked up): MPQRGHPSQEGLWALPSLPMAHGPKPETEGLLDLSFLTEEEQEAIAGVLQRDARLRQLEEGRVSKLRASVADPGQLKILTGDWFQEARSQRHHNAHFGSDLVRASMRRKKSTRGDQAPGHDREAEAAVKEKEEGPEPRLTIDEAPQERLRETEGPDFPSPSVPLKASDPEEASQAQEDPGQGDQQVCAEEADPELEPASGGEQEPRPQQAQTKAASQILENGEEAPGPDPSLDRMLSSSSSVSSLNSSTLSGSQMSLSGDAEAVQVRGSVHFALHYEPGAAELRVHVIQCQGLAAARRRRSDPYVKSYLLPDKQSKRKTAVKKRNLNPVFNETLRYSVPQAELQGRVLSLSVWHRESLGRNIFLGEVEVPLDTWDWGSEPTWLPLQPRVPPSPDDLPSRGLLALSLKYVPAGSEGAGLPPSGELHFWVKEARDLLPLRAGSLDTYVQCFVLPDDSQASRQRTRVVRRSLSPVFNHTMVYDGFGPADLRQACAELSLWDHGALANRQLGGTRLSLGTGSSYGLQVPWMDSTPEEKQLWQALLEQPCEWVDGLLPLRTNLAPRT
# Biological target: T1, Synaptotagmin Like 1 (SYTL1), on the …
# Experiment: peptide or protein array; HuProt v3.1 human proteome array probed with recombinant AKT2 at 1 ug/mL; GenePix analysis; only interactions with a Z-score above 6 considered
# Details: both partners purified
binder,measurement,value
"recombinant AKT2 (RAC-beta serine/threonine-protein kinase) (enzyme, human, UniProt P31751 1-481, looked up, AKT2, RAC-beta serine/threonine-protein kinase; recombinant protein used as the probe on the HuProt v3.1 array; source: recombinant) MNEVSVIKEGWLHKRGEYIKTWRPRYFLLKSDGSFIGYKERPEAPDQTLPPLNNFSVAECQLMKTERPRPNTFVIRCLQWTTVIERTFHVDSPDEREEWMRAIQMVANSLKQRAPGEDPMDYKCGSPSDSSTTEEMEVAVSKARAKVTMNDFDYLKLLGKGTFGKVILVREKATGRYYAMKILRKEVIIAKDEVAHTVTESRVLQNTRHPFLTALKYAFQTHDRLCFVMEYANGGELFFHLSRERVFTEERARFYGAEIVSALEYLHSRDVVYRDIKLENLMLDKDGHIKITDFGLCKEGISDGATMKTFCGTPEYLAPEVLEDNDYGRAVDWWGLGVVMYEMMCGRLPFYNQDHERLFELILMEEIRFPRTLSPEAKSLLAGLLKKDPKQRLGGGPSDAKEVMEHRFFLSINWQDVVQKKLLPPFKPQVTSEVDTRYFDDEFTAQSITITPPDRYDSLGLLELDQRTHFPQFSYSASIRE",binding result,binds

# Reference: publication PMC11271488, “The AKT2/SIRT5/TFEB pathway as a potential therapeutic target in non-neovascular AMD” (Nature Communications, 2024)
